Patent publication US5705143A, “Biological targeting agents” (Amersham International PLC, priority 1994, dated 1998)
Entries after “also recorded” stand apart in the source; their conditions may differ. Bridge positions count the residues as written; N and C are the ends. Square brackets hold non-standard residues; d marks the D form. Peptide text beside a SMILES is read from it. * marks the point of attachment. Phe(ol) = N[C@H](CO)Cc1ccccc1; NHCH(CH2OH)2 = OCC(CO)N*

Experiments:
receptor = conditions: Babich et al; in words; cited from earlier work
[1] = Biodistribution in rats: blood, kidney/bladder/urine, liver, gut, thyroid; format: in vivo, Male Wistar rats; conditions: rat, i.v., carrier free (CF)
Experimental: (§1) Male Wistar rats were injected intravenously, under light anaesthesia with the test agent. At 2 minutes, 1 hour and 4 hours post-injection animals were sacrificed by cervical dislocation and various organs and tissue samples were removed for assay of radioactive content. The percentage injected dose in all dissected organs was calculated. In addition the % dose/gram tissue and the relative concentration of activity was calculated for selected organs. Relative concentration is the proportion of total activity in the organ divided by the proportion of bodyweight comprised by the organ. Thus, if a compound is uniformly disseminated throughout the body according to tissue weight then a given organ will have a relative concentration=1. A relative concentration>1 implies sequestration and/or retention of the compound and is a useful index where the absolute uptake (% injected dose per organ) is low.
(§2) Organs in which the test agent were looked for included the adrenals and the pancreas, where somatostatin receptors are known to be enriched (vide supra).

somatostatin receptors = test: Biodistribution in rats: uptake/retention in adrenals and pancreas (somatostatin receptor-enriched tissues); format: in vivo, Male Wistar rats; conditions: rat, i.v.; for Adrenal % Injected dose / Adrenal Relative concentration / Pancreas % Injected dose / Pancreas Relative concentration: carrier free (CF)
Experimental: In the present invention the peptides studied were radiolabelled with either ^123 I or ^99m Tc and their biodistributions studied in rats with organs of particular interest being the adrenals and pancreas. This is because somatostatin receptors have been shown in vitro to be enriched in a number of tissues including adrenals^(11,12), pancreas^(13,14), pituitary^(11,14) and brain^(15). […] Brain somatostatin receptors are not visualised when the compound is administered in vivo. In this study measurement of pituitary uptake was not sufficiently sensitive to distinguish specific and non-specific effects.
Carrier Effect on ^123 I--Compounds 1 and 6
For ^123 I--Compounds 1 and 6 the effect of carrier peptide on the biodistribution of the carrier-free ^123 I peptide was assessed by preparing 2 ml of a phosphate buffered solution of HPLC-purified carrier-free iodinated peptide as described above but then subdispensing 1 ml of this solution into a second vial containing carrier peptide.
A similar `carrier-effect` is anticipated for technetium labelled peptides, therefore the only valid comparison of biodistribution data for ^99m Tc and ^123 I labelled peptides is when both are carrier-added (CA).
as §1, §2

carboxypeptidases = conditions: in words; cited from earlier work
[2] = Metabolic stability in rat kidney homogenate; format: in vitro ADME; conditions: 37° C., approx. 1 and 3 hours, HPLC; FIG. 1; in words
Experimental: Rat brain and kidney homogenates were produced by homogenising brain (1.71 g) and kidneys (2.41 g) in 10 vols phosphate buffered saline and centrifuging at 2000 rpm for 5 minutes.
Compound 4 (50 μg) was radiolabelled by stannous reduction of ^99m TcO4^- (0.2 GBq) at pH 9.0.
^99m Tc-Compound 4 solution (200 μl) was mixed with phosphate buffered saline (800 μl, control) rat kidney homogenate (800 μl) and rat brain homogenate (800 μl) and incubated at 37° C. HPLC analyses using the system described in Example 13 for ^99m Tc labelled peptides were performed on each sample at approx. 1 and 3 hours post-mixing.

[3] = in words; cited from earlier work
growth hormone = conditions: relative to somatostatin = 100%; cited from earlier work

CSCC[C@H](NC=O)C(=O)N[C@@H](CC(C)C)C(=O)N[C@@H](Cc1ccccc1)C(=O)NCCCCCCNC(=O)c1ccc(NN)nc1 [HP3, fMLFNH(CH2)6 NH--HYNIC]
in vitro receptor binding affinity (receptor): marginally better in vitro receptor binding affinity than HP2

I-SS14: 123I labelled Somatostatin-14
Blood % Injected dose ([1]; 2 min pi): 16.2 % Injected dose | Gut % Injected dose ([1]; 2 min pi): 9.9 % Injected dose | Kidney, Bladder & Urine % Injected dose ([1]; 2 min pi): 3.4 % Injected dose | Liver % Injected dose ([1]; 2 min pi): 7.2 % Injected dose | Thyroid % Injected dose ([1]; 2 min pi): 0.11 % Injected dose | Blood % Injected dose ([1]; 1 hr pi): 5.5 % Injected dose | Gut % Injected dose ([1]; 1 hr pi): 19.9 % Injected dose | Kidney, Bladder & Urine % Injected dose ([1]; 1 hr pi): 9.9 % Injected dose | Liver % Injected dose ([1]; 1 hr pi): 2.2 % Injected dose | Thyroid % Injected dose ([1]; 1 hr pi): 1.10 % Injected dose | Blood % Injected dose ([1]; 4 hr pi): 6.1 % Injected dose | Gut % Injected dose ([1]; 4 hr pi): 12.1 % Injected dose | Kidney, Bladder & Urine % Injected dose ([1]; 4 hr pi): 17.9 % Injected dose | Liver % Injected dose ([1]; 4 hr pi): 2.4 % Injected dose | Thyroid % Injected dose ([1]; 4 hr pi): 2.00 % Injected dose | somatostatin (SS) receptor binding in adrenals and pancreas (somatostatin receptors; 2 min, 1 and 4 hours p.i., in words, listed as 123 I-SS14): can be detected in the adrenal glands and pancreatic tissue; also recorded: marked SS-like binding of ^123 I-SS14 at 2 minutes post-injection (p.i.), but this activity was not retained at 1 and 4 hours p.i | Adrenal % Injected dose (somatostatin receptors; 2 min pi): 0.19 % Injected dose | Adrenal Relative concentration (somatostatin receptors; 2 min pi): 7.6 | Pancreas % Injected dose (somatostatin receptors; 2 min pi): 2.3 % Injected dose | Pancreas Relative concentration (somatostatin receptors; 2 min pi): 4.5 | Adrenal % Injected dose (somatostatin receptors; 1 hr pi): 0.01 % Injected dose | Adrenal Relative concentration (somatostatin receptors; 1 hr pi): 0.4 | Pancreas % Injected dose (somatostatin receptors; 1 hr pi): 0.3 % Injected dose | Pancreas Relative concentration (somatostatin receptors; 1 hr pi): 0.6 | Adrenal % Injected dose (somatostatin receptors; 4 hr pi): 0.01 % Injected dose | Adrenal Relative concentration (somatostatin receptors; 4 hr pi): 0.3 | Pancreas % Injected dose (somatostatin receptors; 4 hr pi): 0.2 % Injected dose | Pancreas Relative concentration (somatostatin receptors; 4 hr pi): 0.4

somatostatin
susceptibility to metabolism by carboxypeptidases (carboxypeptidases): particularly susceptible to metabolism by carboxypeptidases | metabolic stability in rat kidney homogenate [2]: rapidly metabolised

C[C@@H](O)[C@@H]1NC(=O)[C@H](CCCCN)NC(=O)[C@@H](Cc2c[nH]c3ccccc23)NC(=O)[C@H](Cc2ccccc2)NC(=O)[C@@H](NC(=O)[C@H](N)Cc2ccccc2)CSSC[C@@H](C(=O)N[C@H](CO)[C@@H](C)O)NC1=O [Octreotide]
biological half-life [3]: much longer biological half-life than natural somatostatin

C[C@@H](O)[C@@H]1NC(=O)[C@H](CCCCN)NC(=O)[C@@H](Cc2c[nH]c3ccccc23)NC(=O)[C@H](Cc2ccccc2)NC(=O)[C@@H](NC(=O)[C@H](N)Cc2ccccc2)CSSC[C@@H](C(=O)N[C@H](CO)Cc2ccccc2)NC1=O [Phe(ol)] (H-[dF]CF[dW]KTC[Phe(ol)]; disulfide 2-7)
Relative potency (%) of growth hormone inhibition in vivo (growth hormone): 650%

C[C@H](O)[C@@H](NC(=O)[C@@H]1CSSC[C@H](NC(=O)[C@H](N)Cc2ccccc2)C(=O)N[C@@H](Cc2ccccc2)C(=O)N[C@H](Cc2c[nH]c3ccccc23)C(=O)N[C@@H](CCCCN)C(=O)N[C@@H]([C@@H](C)O)C(=O)N1)C(N)=O [D-Thr(NH2)]
Relative potency (%) of growth hormone inhibition in vivo (growth hormone): 1160%

C[C@@H](O)[C@@H]1NC(=O)[C@H](CCCCN)NC(=O)[C@@H](Cc2c[nH]c3ccccc23)NC(=O)[C@H](Cc2ccccc2)NC(=O)[C@@H](NC(=O)[C@H](N)Cc2ccccc2)CSSC[C@@H](C(=O)NC(CO)CO)NC1=O [Ser(ol)] (H-[dF]CF[dW]KTC-{NHCH(CH2OH)2}; disulfide 2-7)
Relative potency (%) of growth hormone inhibition in vivo (growth hormone): 2800%

C[C@@H](O)[C@@H]1NC(=O)[C@H](CCCCN)NC(=O)[C@@H](Cc2c[nH]c3ccccc23)NC(=O)[C@H](Cc2ccccc2)NC(=O)[C@@H](NC(=O)[C@H](N)Cc2ccccc2)CSSC[C@@H](C(=O)N[C@H](CO)[C@@H](C)O)NC1=O [Thr(ol)]
Relative potency (%) of growth hormone inhibition in vivo (growth hormone): 7000%

C[C@H](O)[C@H](CO)NC(=O)[C@@H]1CSSC[C@H](NC(=O)[C@H](N)Cc2ccccc2)C(=O)N[C@@H](Cc2ccccc2)C(=O)N[C@H](Cc2c[nH]c3ccccc23)C(=O)N[C@@H](CCCCN)C(=O)N[C@@H]([C@@H](C)O)C(=O)N1 [D-Thr(ol)]
Relative potency (%) of growth hormone inhibition in vivo (growth hormone): 1100%
